T1: FLAG tag
T1 chain: DYKDDDDK


Assays:
FLAG tag [1] = molecular target: T1, FLAG tag; test: SPR
FLAG tag [2] = molecular target: T1, FLAG tag; test: SPR bivalent

| Binder | Kd (FLAG tag [1]) | Kd (FLAG tag [2]) |
| --- | --- | --- |
| V4 IgG (antibody, V domains shown) VH: QVQLVQSGAEVKKPGASVKVSCKASGYSFTTYTIHWVRQAPGQGLEWIGYINPSSGYAAYNQKFQGRVTLTADKSTSTAYMELSSLRSEDTAVYYCAREKFYGYDYWGQGTTVTVSS VL: DVVMTQSPDSLAVSLGERATINCKSSQSIVHRNGNTYLEWYQQKPGQPPKLLIYKVSNRFSGVPDRFSGSGSGTDFTLTISSLQAEDVAVYYCFQGSHVPYTFGGGTKLEIK |  | 0.91 nM |
| V3 IgG (antibody, V domains shown) VH: QVQLVQSGAEVKKPGASVKVSCKASGYSFTTYTIHWVRQAPGQGLEWIGYINPSSGYAAYNQKFQGRVTLTADKSTSTAYMELSSLRSEDTAVYYCAREKFYGYDYWGQGTTVTVSS VL: DVVMTQSPDSLAVSLGERATINCKSSQSIVHRNGNTYLEWYQLKPGQPPKLLIYKVSNRFSGVPDRFSGSGSGTDFTLTISSLQAEDVAVYYCFQGSHVPYTFGGGTKLEIK |  | 1 nM |
| V3 scFv (antibody, V domains shown) VH: QVQLVQSGAEVKKPGASVKVSCKASGYSFTTYTIHWVRQAPGQGLEWIGYINPSSGYAAYNQKFQGRVTLTADKSTSTAYMELSSLRSEDTAVYYCAREKFYGYDYWGQGTTVTVSS VL: DVVMTQSPDSLAVSLGERATINCKSSQSIVHRNGNTYLEWYQLKPGQPPKLLIYKVSNRFSGVPDRFSGSGSGTDFTLTISSLQAEDVAVYYCFQGSHVPYTFGGGTKLEIK | 19 nM |  |

Now from value to binder:

| Kd (FLAG tag [1]) | Kd (FLAG tag [2]) | Binder |
| --- | --- | --- |
| 15 nM |  | V7 scFv (antibody, V domains shown) VH: QVQLVQSGAEVKKPGASVKVSCKASGYSFTTYTMHWVRQAPGQGLEWMGYINPSSGYAAYNQKFQGRVTMTADKSTSTAYMELSSLRSEDTAVYYCAREKFYGYDYWGQGTTVTVSS VL: DVVMTQSPDSLAVSLGERATINCKSSQSIVHRNGNTYLEWYQLKPGQPPKLLIYKVSNRFSGVPDRFSGSGSGTDFTLTISSLQAEDVAVYYCFQGSHVPYTFGGGTKLEIK |
|  | 1.3 nM | V7 IgG (antibody, V domains shown) VH: QVQLVQSGAEVKKPGASVKVSCKASGYSFTTYTMHWVRQAPGQGLEWMGYINPSSGYAAYNQKFQGRVTMTADKSTSTAYMELSSLRSEDTAVYYCAREKFYGYDYWGQGTTVTVSS VL: DVVMTQSPDSLAVSLGERATINCKSSQSIVHRNGNTYLEWYQLKPGQPPKLLIYKVSNRFSGVPDRFSGSGSGTDFTLTISSLQAEDVAVYYCFQGSHVPYTFGGGTKLEIK |
| 22 nM |  | V4 scFv (antibody, V domains shown) VH: QVQLVQSGAEVKKPGASVKVSCKASGYSFTTYTIHWVRQAPGQGLEWIGYINPSSGYAAYNQKFQGRVTLTADKSTSTAYMELSSLRSEDTAVYYCAREKFYGYDYWGQGTTVTVSS VL: DVVMTQSPDSLAVSLGERATINCKSSQSIVHRNGNTYLEWYQQKPGQPPKLLIYKVSNRFSGVPDRFSGSGSGTDFTLTISSLQAEDVAVYYCFQGSHVPYTFGGGTKLEIK |
|  | 0.96 nM | Parental (mouse VH/VL, human constant regions) (antibody, V domains shown) VH: QVQLQQSAGELARPGASVKMSCKASGYSFTTYTIHWVKQRPGQGLEWIGYINPSSGYAAYNQNFKDETTLTADKSSSTAYMQLSSLTSEDSAVYYCAREKFYGYDYWGQGTTLTVSS VL: DVLMTQLPLSLPVSLGDQASISCRSSQSIVHRNGNTYLEWYLLKPGQSPKLLIYKVSNRFSGVPDRFSGSGSGTDFTLKISRVEAEDLGVYYCFQGSHVPYTFGGGTKLEIK |

— patent US20260356982 (published 2026)
